In patent US20250257116A1:

Tests used:
[1] = target: CD16-F176V-V196_S197insP-V197_T198insP (Homo sapiens (Human)) (UniProt P08637); test: cell-based or functional assay
[2] = target: CD16-WT (Homo sapiens (Human)) (UniProt P08637); test: cell-based or functional assay

decrease of CD16 expression on iNK cells after adding Raji cells and Rituximab [1]: 9%
decrease of CD16 expression on iNK cells after adding Raji cells and Rituximab [2]: 40%
Substance: metalloproteinase 17 (ADAM17) (from UniProt P78536 215-824) (enzyme)
